Patent publication US20230295301A1 (SHANGHAI JUNSHI BIOSCIENCES, published 2023)
Substitutions are numbered along the chain they refer to.

T1: huCTLA-4 ECD (his-tag) (human, UniProt P16410 37-162)
T1 construct: also called HX1 hCTLA4 his; HX1 huCTLA4 his; not shown: his-tag
T1 sequence: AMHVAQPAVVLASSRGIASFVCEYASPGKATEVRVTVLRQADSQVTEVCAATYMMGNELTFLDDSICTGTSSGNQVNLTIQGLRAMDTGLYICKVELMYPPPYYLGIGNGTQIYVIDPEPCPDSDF

B1: huJS007-48 (antibody, human IgG1, kappa, V domains shown)
VH: QVQLQESGPGLVKPSQTLSLTCTVSAYSITSGYYWNWIRQHPGKGLEWIGYIGYDGSNNYNPSLKSRVTISRDTSKNQFSLKLSSVTAADTAVYYCARDYYSGYFDSWGQGTTLTVSS
VL: DIQMTQSPSSLSASVGDRVTITCRASQNVGTYVAWYQQKPGKAPKPLIYSTSYRYSGVPSRFSGSGSGTDFTLTISSLQPEDFATYFCHQYDTYPLTFGAGTKLELKR
B2: HuJS007-52 (antibody, V domains shown)
VH: B1 VH
VL: EIVMTQSPATLSVSPGERATLSCRASQNVGTYVAWYQQKPGQAPRPLIYSTSYRYSGIPARFSGSGSGTEFTLTISSLQSEDFAVYYCHQYDTYPLTFGQGTKLEIK
notes: 4B7 VH2-2 + 4B7VL7; constant regions not specified
B3: HuJS007-46 (antibody, V domains shown)
VH: B1 VH
VL: DIVMTQSPDSLAVSLGERATINCKASQNVGTYVAWYQQKPGQPPKPLIYSTSYRYSGVPDRFSGSGSGTDFTLTISSLQAEDVAVYFCHQYDTYPLTFGAGTKLELK
notes: 4B7 VH2-2 + 4B7VL1; constant regions not specified
B4: HuJS007-51 (antibody, V domains shown)
VH: B1 VH
VL: B3 VL with P46L, F87Y, A100Q, L106I
notes: 4B7 VH2-2 + 4B7VL6; constant regions not specified
B5: HuJS007-84 (antibody, V domains shown)
VH: QVQLQESGPGLVKPSQTLSLTCAVSGYSISSGYYWNWIRQFPGKGLEWMGYIGYDGSNYYNPSLKNRVTMSVDTSKNQFSLKLSSVTAVDTAVYYCARNYYSGYFDSWGQGTTVTVSS
VL: DIQMTQSPSSLSASVGDRVTITCRASQNVGTYVAWYQQKPGKAPKPLIYSTSYRYSGVPSRFSGSGSGTDFTLTISSLQPEDFATYFCHQYDTYPLTFGAGTKLELK
notes: 1A5 VH6 + 4B7VL3; constant regions not specified
B6: HuJS007-89 (antibody, V domains shown)
VH: B5 VH
VL: B3 VL with A100Q, L106I
notes: 1A5 VH6 + 4B7VL8; constant regions not specified
B7: HuJS007-105 (antibody, V domains shown)
VH: B5 VH with S30T, F41P, M49I, Y59N, N99D
VL: B3 VL with P46L, F87Y, A100Q, L106I
notes: 4B7 VH2-5 + 4B7VL6; constant regions not specified
B8: HuJS007-69 (antibody, V domains shown)
VH: B1 VH with T23A
VL: B3 VL with P46L, F87Y, A100Q, L106I
notes: 4B7 VH2-4 + 4B7VL6; constant regions not specified
B9: HuJS007-65 (antibody, V domains shown)
VH: B1 VH with T23A
VL: B5 VL with A43V, F83V
notes: 4B7 VH2-4 + 4B7VL2; constant regions not specified
B10: HuJS007-76 (antibody, V domains shown)
VH: B5 VH with F41P, M49I, N66S
VL: B5 VL with S10F, D70E
notes: 1A5 VH5 + 4B7VL4; constant regions not specified
B11: HuJS007-53 (antibody, V domains shown)
VH: B1 VH
VL: B3 VL with A100Q, L106I
notes: 4B7 VH2-2 + 4B7VL8; constant regions not specified
B12: HuJS007-60 (antibody, V domains shown)
VH: B1 VH with Q16E, A26G, H41P
VL: B3 VL with P46L, F87Y, A100Q, L106I
notes: 4B7 VH2-3 + 4B7VL6; constant regions not specified
B13: HuJS007-58 (antibody, V domains shown)
VH: B1 VH with Q16E, A26G, H41P
VL: B5 VL with S10F, D70E
notes: 4B7 VH2-3 + 4B7VL4; constant regions not specified
B14: HuJS007-100 (antibody, V domains shown)
VH: B5 VH with S30T, F41P, M49I, Y59N, N99D
VL: B3 VL
notes: 4B7 VH2-5 + 4B7VL1; constant regions not specified
B15: HuJS007-59 (antibody, V domains shown)
VH: B1 VH with Q16E, A26G, H41P
VL: B5 VL with R24Q, L73F, F83I
notes: 4B7 VH2-3 + 4B7VL5; constant regions not specified
B16: HuJS007-107 (antibody, V domains shown)
VH: B5 VH with S30T, F41P, M49I, Y59N, N99D
VL: B3 VL with A100Q, L106I
notes: 4B7 VH2-5 + 4B7VL8; constant regions not specified
B17: HuJS007-62 (antibody, V domains shown)
VH: B1 VH with Q16E, A26G, H41P
VL: B3 VL with A100Q, L106I
notes: 4B7 VH2-3 + 4B7VL8; constant regions not specified
B18: HuJS007-77 (antibody, V domains shown)
VH: B5 VH with F41P, M49I, N66S
VL: B5 VL with R24Q, L73F, F83I
notes: 1A5 VH5 + 4B7VL5; constant regions not specified
B19: HuJS007-104 (antibody, V domains shown)
VH: B5 VH with S30T, F41P, M49I, Y59N, N99D
VL: B5 VL with R24Q, L73F, F83I
notes: 4B7 VH2-5 + 4B7VL5; constant regions not specified
B20: HuJS007-71 (antibody, V domains shown)
VH: B1 VH with T23A
VL: B3 VL with A100Q, L106I
notes: 4B7 VH2-4 + 4B7VL8; constant regions not specified
B21: HuJS007-49 (antibody, V domains shown)
VH: B1 VH
VL: B5 VL with S10F, D70E
notes: 4B7 VH2-2 + 4B7VL4; constant regions not specified
B22: HuJS007-56 (antibody, V domains shown)
VH: B1 VH with Q16E, A26G, H41P
VL: B5 VL with A43V, F83V
notes: 4B7 VH2-3 + 4B7VL2; constant regions not specified
B23: HuJS007-73 (antibody, V domains shown)
VH: B5 VH with F41P, M49I, N66S
VL: B3 VL
notes: 1A5 VH5 + 4B7VL1; constant regions not specified
B24: HuJS007-50 (antibody, V domains shown)
VH: B1 VH
VL: B5 VL with R24Q, L73F, F83I
notes: 4B7 VH2-2 + 4B7VL5; constant regions not specified
B25: HuJS007-64 (antibody, V domains shown)
VH: B1 VH with T23A
VL: B3 VL
notes: 4B7 VH2-4 + 4B7VL1; constant regions not specified
B26: HuJS007-67 (antibody, V domains shown)
VH: B1 VH with T23A
VL: B5 VL with S10F, D70E
notes: 4B7 VH2-4 + 4B7VL4; constant regions not specified
B27: HuJS007-80 (antibody, V domains shown)
VH: B5 VH with F41P, M49I, N66S
VL: B3 VL with A100Q, L106I
notes: 1A5 VH5 + 4B7VL8; constant regions not specified
B28: HuJS007-68 (antibody, V domains shown)
VH: B1 VH with T23A
VL: B5 VL with R24Q, L73F, F83I
notes: 4B7 VH2-4 + 4B7VL5; constant regions not specified
B29: HuJS007-78 (antibody, V domains shown)
VH: B5 VH with F41P, M49I, N66S
VL: B3 VL with P46L, F87Y, A100Q, L106I
notes: 1A5 VH5 + 4B7VL6; constant regions not specified
B30: HuJS007-55 (antibody, V domains shown)
VH: B1 VH with Q16E, A26G, H41P
VL: B3 VL
notes: 4B7 VH2-3 + 4B7VL1; constant regions not specified
B31: HuJS007-57 (antibody, V domains shown)
VH: B1 VH with Q16E, A26G, H41P
VL: B5 VL
notes: 4B7 VH2-3 + 4B7VL3; constant regions not specified
B32: HuJS007-74 (antibody, V domains shown)
VH: B5 VH with F41P, M49I, N66S
VL: B5 VL with A43V, F83V
notes: 1A5 VH5 + 4B7VL2; constant regions not specified
B33: HuJS007-75 (antibody, V domains shown)
VH: B5 VH with F41P, M49I, N66S
VL: B5 VL
notes: 1A5 VH5 + 4B7VL3; constant regions not specified
B34: HuJS007-66 (antibody, V domains shown)
VH: B1 VH with T23A
VL: B5 VL
notes: 4B7 VH2-4 + 4B7VL3; constant regions not specified
B35: HuJS007-101 (antibody, V domains shown)
VH: B5 VH with S30T, F41P, M49I, Y59N, N99D
VL: B5 VL with A43V, F83V
notes: 4B7 VH2-5 + 4B7VL2; constant regions not specified
B36: HuJS007-103 (antibody, V domains shown)
VH: B5 VH with S30T, F41P, M49I, Y59N, N99D
VL: B5 VL with S10F, D70E
notes: 4B7 VH2-5 + 4B7VL4; constant regions not specified
B37: HuJS007-102 (antibody, V domains shown)
VH: B5 VH with S30T, F41P, M49I, Y59N, N99D
VL: B5 VL
notes: 4B7 VH2-5 + 4B7VL3; constant regions not specified

Biological target: T1, huCTLA-4 ECD (his-tag)
Test: ELISA, coated huCTLA-4 his
Protocol: HX1 hCTLA4 his was diluted with PBS (Hyclone) to 1.0 μg/mL, and the dilution was added to a microplate at 100 μL/well. The plate was let stand in an incubator at 37° C. and coated for 90 min and then washed, and 2% BSA was added to the plate at 200 μL/well. The plate was incubated in an incubator at 37° C. for 90 min and then washed. The humanized anti-CTLA-4 antibodies in Table 4 and the control antibody (ipilimumab) were diluted with a diluent (2% BSA) to 1000 ng/mL. The dilution performed each time was not higher than 10-fold. Then, the humanized antibodies and the control antibody were serially diluted 2.5-fold on a sample dilution plate. All the humanized antibody solutions and the control antibody solution were added to a microplate at 100 μL/well. The plate was incubated in an incubator at 37° C. for 60 min and then washed. An HRP-conjugated goat anti-human antibody IgG (Fc specific) was diluted 5000-fold with 2% BSA, and the dilution was added to the microplate at 100 μL/well. The plate was incubated in an incubator at 37° C. for 60 min and then washed. The color development solution TMB was added at 100 μL/well, during which bubbles were avoided. Color development was allowed at 37° C. for 15 min in the dark and then terminated by adding 2 M hydrochloric acid solution at 100 μL/well, during which bubbles were avoided. Reading (wavelength: 450/620 nm) was done within 10 min using a microplate reader.

Binding result, binds:
B1
B2
B3
B4
B5
B6
B7
B8
B9
B10
B11
B12
B13
B14
B15
B16
B17
B18
B19
B20
B21
B22
B23
B24
B25
B26
B27
B28
B29
B30
B31
B32
B33
B34
B35
B36
B37
